Source: patent US20160258933A1 (Dana-Farber, published 2016)
Ends that are not written are not given here. * marks the point of attachment. FITC = O=C1OC2(c3ccc(O)cc3Oc3cc(O)ccc32)c2ccc(NC(=S)*)cc21; Ahx = NCCCCCC(=O)O

T1: GST-BCL-w (human, UniProt Q92843 1-164, limits assumed)
T1 construct: Bacterially expressed GST fusion; not shown: GST tag
T1 sequence (looked up): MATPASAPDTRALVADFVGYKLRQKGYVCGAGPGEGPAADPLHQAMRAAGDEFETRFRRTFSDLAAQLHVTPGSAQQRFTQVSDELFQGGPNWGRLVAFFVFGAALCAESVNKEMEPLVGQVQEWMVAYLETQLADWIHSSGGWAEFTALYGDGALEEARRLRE

T2: GST-BFL-1 (human, UniProt Q16548 1-153, limits assumed)
T2 construct: Bacterially expressed GST fusion; not shown: GST tag
T2 sequence (looked up): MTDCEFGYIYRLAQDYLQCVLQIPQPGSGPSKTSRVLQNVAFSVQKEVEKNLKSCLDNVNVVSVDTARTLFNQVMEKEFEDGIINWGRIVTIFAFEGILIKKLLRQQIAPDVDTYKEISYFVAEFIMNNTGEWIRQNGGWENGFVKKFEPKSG


What was measured:
[1] = biological target: T3, GST-BCL-2 (human, UniProt P10415 1-218, limits assumed); assay: fluorescence polarization, FITC peptide with GST-BCL-2
T3 construct: Bacterially expressed GST fusion; not shown: GST tag
Experimental: (§1) Binding assays were performed using fluorescence polarization as previously described (Letai et al., 2002). A minimum of three independent experiments were used to determine each dissociation constant.
(§2) To determine selectivity in interactions among antiapoptotic BCL-2 family members and BH3 domains of BH3-only proteins, fluorescence polarization binding assays (FPA) were used. Antiapoptotic proteins BCL-2, BCL-XL, MCL-1, BCL-w, and BFL-1 were purified from transfected bacteria as GST fusion proteins. Oligopeptides used for FPA were tagged with an N-terminal FITC moiety.

[2] = biological target: T1, GST-BCL-w; assay: fluorescence polarization, FITC peptide with GST-BCL-w
Experimental: as §1, §2

[3] = biological target: T2, GST-BFL-1; assay: fluorescence polarization, FITC peptide with GST-BFL-1
Experimental: as §1, §2

[4] = biological target: T4, GST-BCL-XL (human, UniProt Q07817 1-212, limits assumed); assay: fluorescence polarization, FITC peptide with GST-BCL-XL
T4 construct: Bacterially expressed GST fusion; not shown: GST tag
Experimental: as §1, §2

[5] = biological target: T3, GST-BCL-2; assay: fluorescence polarization displacement of fluorescein BIM BH3 from 0.5 uM GST-BCL-2
Experimental: as §1

[6] = biological target: T3, GST-BCL-2; assay: fluorescence polarization (Table 2b) as retold
[7] = biological target: T5, GST-MCL-1 (human, UniProt Q07820 1-327, limits assumed); assay: fluorescence polarization displacement of fluorescein BIM BH3 from 0.1 uM GST-MCL-1
T5 construct: not shown: GST tag
Experimental: as §1

T3 sequence (P10415 1-218 limits assumed): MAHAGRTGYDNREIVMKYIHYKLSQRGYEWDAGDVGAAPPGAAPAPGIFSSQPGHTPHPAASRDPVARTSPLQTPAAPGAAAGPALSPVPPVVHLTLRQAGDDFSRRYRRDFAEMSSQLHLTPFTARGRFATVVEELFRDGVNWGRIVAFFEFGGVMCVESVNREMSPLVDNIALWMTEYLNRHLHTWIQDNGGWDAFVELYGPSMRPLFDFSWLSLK
T4 sequence (Q07817 1-212 limits assumed): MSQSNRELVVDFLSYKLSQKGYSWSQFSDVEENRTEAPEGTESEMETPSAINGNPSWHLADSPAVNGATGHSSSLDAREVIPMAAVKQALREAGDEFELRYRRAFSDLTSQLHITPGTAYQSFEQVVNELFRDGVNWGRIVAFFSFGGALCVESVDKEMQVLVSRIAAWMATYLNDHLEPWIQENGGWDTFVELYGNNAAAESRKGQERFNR
T5 sequence (Q07820 1-327 limits assumed): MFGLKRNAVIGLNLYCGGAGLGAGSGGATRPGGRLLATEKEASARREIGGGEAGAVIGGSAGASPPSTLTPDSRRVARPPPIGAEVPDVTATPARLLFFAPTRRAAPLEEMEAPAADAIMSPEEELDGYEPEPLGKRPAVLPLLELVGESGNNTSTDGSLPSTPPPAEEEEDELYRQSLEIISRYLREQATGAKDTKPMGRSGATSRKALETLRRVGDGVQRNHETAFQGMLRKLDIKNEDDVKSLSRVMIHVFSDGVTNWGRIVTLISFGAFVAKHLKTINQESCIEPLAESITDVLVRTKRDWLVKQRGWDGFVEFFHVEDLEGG

| binding result [1] | binding result [2] | binding result [3] | binding result [4] | Binder | further results |
| --- | --- | --- | --- | --- | --- |
| no binding | no binding | no binding | no binding | {FITC-Ahx}-AELPPEFAAQLRKIGDKVYC [NOXA A BH3 peptide, N-terminal fluorescein tagged] | – |
| – | – | – | – | AELPPEFAAQLRKIGDKVYC (Peptide as titrated in the displacement assay and used on mitochondria and cells) [NOXA A BH3 peptide (no tag stated)] | binding result [5]: no binding |
| no binding | no binding | no binding | no binding | {FITC-Ahx}-PADLKDECAQLRRIGDKVNL [NOXA B BH3 peptide, N-terminal fluorescein tagged] | – |
| – | – | – | – | {FITC-Ahx}-MEGSDALALRLACIGDEMDV [BIK BH3 peptide, N-terminal fluorescein tagged] | fold lower affinity than BAD BH3 [6]: ~10 fold; fold lower affinity than BAD, PUMA or BMF BH3 [6]: ~10 fold |
| – | – | – | – | LWAAQRYGRELRRMSDEFEGSFKGL (Peptide as titrated in the displacement assay and used on mitochondria and cells) [BAD BH3 peptide (no tag stated)] | binding result [7]: no binding |
